# In patent US20160053014A1:
# B1: SAR113244 (antibody, from another filing, V domains shown)
# VH: QVQLKESGPGLVAPSESLSITCTVSGFSLIDYGVNWIRQPPGKGLEWLGVIWGDGTTYYNPSLKSRLSISKDNSKSQVFLKVTSLTTDDTAMYYCARIVYWGQGTLVTVSA
# VL: DIVMTQAAPSVAVTPGASVSISCRSSKSLLHSSGKTYLYWFLQRPGQSPQLLIYRLSSLASGVPDRFSGSGSGTAFTLRISRVEAEDVGVYYCMQHLEYPYTFGGGTKLEIKR
# Target: human CXCR5 (human) (UniProt P32302)
# Assay: cell-based or functional assay
# human CXCR5 (human), sequence (P32302 whole entry): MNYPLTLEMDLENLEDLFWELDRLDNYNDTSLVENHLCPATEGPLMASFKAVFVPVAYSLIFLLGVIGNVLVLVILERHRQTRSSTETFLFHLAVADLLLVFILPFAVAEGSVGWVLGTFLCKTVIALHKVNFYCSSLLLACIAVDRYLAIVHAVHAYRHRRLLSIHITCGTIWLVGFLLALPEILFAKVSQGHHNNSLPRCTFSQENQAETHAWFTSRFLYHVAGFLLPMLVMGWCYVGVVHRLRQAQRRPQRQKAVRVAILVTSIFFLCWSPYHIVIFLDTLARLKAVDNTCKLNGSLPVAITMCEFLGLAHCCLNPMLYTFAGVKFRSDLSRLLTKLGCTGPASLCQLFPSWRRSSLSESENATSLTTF
binder,measurement,value
B1,IC50 [nM] of mAbs in chemotaxis assay using HS-Sultan cells (25 nM CXCL13),4.7 nM
